Assay results reported in PMC9860449.

Key:
[1] = target: FUS^WT released from GST-TEV-FUS by TEV protease (UniProt P35637)
[2] = target: FUS^WT released from GST-TEV-FUS by TEV protease (UniProt P35637); remark: listed apart in the source
[3] = target: FUS released from 6xHis-MBP-FUS by TEV protease (UniProt P35637)

FUS fibrillization left (normalised turbidity at 395 nm; 3 μM FUS, TEV protease) at the highest concentration of H1-H13 tested [1] [%]	reduction of turbidity of preformed FUS fibrils after 80 min at the highest concentration of H1-H13 tested [2] [%]	reduction of number and total area of preformed FUS:RNA droplets (1 μM FUS, 1 μM U40 RNA; 0.75 μM H1-H13, 2 h) [3] [%]	reduction of number and total area of preformed FUS:RNA droplets (1 μM FUS, 1 μM U40 RNA; 0.75 μM Kapβ2, 2 h) [3] [%]	Substance
40	50	44	–	Kapβ2 H1-H13 (residues 1–604) (from UniProt Q92973-2 1-604) (domain or fragment)
–	–	–	100	Karyopherin-β2 (Kapβ2), full-length, wild type (from UniProt Q92973-2 1-890) (natural protein)
